Values belong to the binder of their own block, whether it stands above or below them.
How the values were obtained:
[1] = biological target: feline CAPRIN-1, endogenous (serum of cancer-bearing cats) (cat); experiment: sandwich ELISA: polyclonal anti-SEQ ID NO: 43 immobilised, serum of cancer-bearing cats, monoclonal antibody 1 ug/ml as secondary antibody
[2] = biological target: T1, canine CAPRIN-1, endogenous (canine tissue sections; serum of cancer-bearing dogs) (dog, UniProt A0A8I3S8S8 2-717); experiment: sandwich ELISA: polyclonal anti-SEQ ID NO: 43 immobilised, serum of cancer-bearing dogs, monoclonal antibody 1 ug/ml as secondary antibody
T1 construct: Endogenous protein or fragment of it; also called antigen polypeptide contained in specimens (dog)
T1 sequence: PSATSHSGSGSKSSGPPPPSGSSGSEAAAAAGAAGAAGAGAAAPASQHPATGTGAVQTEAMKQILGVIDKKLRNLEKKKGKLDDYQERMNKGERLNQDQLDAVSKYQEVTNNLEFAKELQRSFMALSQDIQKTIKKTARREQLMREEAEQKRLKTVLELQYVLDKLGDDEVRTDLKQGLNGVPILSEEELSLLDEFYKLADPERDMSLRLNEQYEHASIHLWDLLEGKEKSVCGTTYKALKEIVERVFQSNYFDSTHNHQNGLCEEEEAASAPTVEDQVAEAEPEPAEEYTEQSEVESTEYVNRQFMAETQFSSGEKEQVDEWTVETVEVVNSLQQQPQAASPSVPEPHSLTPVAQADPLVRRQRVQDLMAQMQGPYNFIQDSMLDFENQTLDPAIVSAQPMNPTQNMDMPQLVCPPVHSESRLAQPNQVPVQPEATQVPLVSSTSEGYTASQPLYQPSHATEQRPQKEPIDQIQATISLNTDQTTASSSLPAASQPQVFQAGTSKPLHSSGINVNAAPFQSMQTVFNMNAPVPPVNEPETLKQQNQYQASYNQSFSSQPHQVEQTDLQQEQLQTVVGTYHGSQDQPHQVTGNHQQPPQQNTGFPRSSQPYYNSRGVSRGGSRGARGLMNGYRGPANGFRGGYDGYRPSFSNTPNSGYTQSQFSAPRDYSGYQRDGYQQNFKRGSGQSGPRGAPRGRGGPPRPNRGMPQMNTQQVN
Source text: With the use of the polyclonal antibody against CAPRIN-1-derived peptide (SEQ ID NO: 43) obtained in Example 3 (1) and each monoclonal antibody against the CAPRIN-1 protein obtained in Example 3 (2) in combination, the antigen polypeptide itself contained in specimens (cancer-bearing living organism-derived serum) reacted positive upon cancer diagnosis using the polypeptide of CAPRIN-1 in Example 4 (1)-(3) was detected by Sandwich ELISA. The polyclonal antibody was used as a primary antibody and each monoclonal antibody was used as a secondary antibody. The serum protein level of the protein specifically reacting with each of the above antibodies was measured.
The primary antibody was immobilized by adding the polyclonal antibody diluted to a concentration of 5 μg/ml with phosphate buffered saline to 96-well immobilizer amino plates (Nunc) at 100 μl/well and then shaking the plates at room temperature for 2 hours. Blocking was performed by adding a 50 mM sodium bicarbonate buffer solution (pH 8.4) (hereinafter, blocking solution) containing 0.5% BSA (bovine serum albumin, Sigma Aldrich Japan) at 100 μl/well and then shaking at room temperature for 1 hour. Subsequently, a cancer-bearing living organism-derived serum diluted using the blocking solution was added at 100 μl/well and then the resultants were shaken at room temperature for 3 hours for reaction. The dilution rate at this time was adjusted with 10-fold (10-1000-fold) dilution series. After 3 instances of washing with phosphate buffered saline (hereinafter, PBS-T) containing 0.05% Tween20 (Wako Pure Chemical Industries, Ltd.), each monoclonal antibody as a secondary antibody diluted to a concentration of 1 μg/ml with the blocking solution was added at 100 μl/well and then the resultants were shaken at room temperature for 1 hour for reaction. After 3 instances of washing with PBS-T, an HRP-labeled anti-mouse IgG (H+L) antibody (Invitrogen Corporation) as a tertiary antibody diluted 5000-fold with the blocking solution was added at 100 μl per well and then left to stand at room temperature for 1 hour. […]

absorbance at 450 nm (polypeptide level) [1]: > 0.3
absorbance at 450 nm (polypeptide level) [2]: ≥ 0.3
B1: monoclonal antibody #2 (antibody, V domains shown)
VH: EVQLHQFGAELVKPGASVKISCKASGYTFTDYNMDWVKQSHGKSLEWIGDINPNYDSTSYNQKFKGKATLTVDKSSSTAYMELRSLTSEDTAVYYCARSRSYDYEGFAYWGQGTLVTVSA
VL: DIQLTQSPASLSASVGETVTITCRASGNIHNYLAWYQQKQGKSPQLLVYNAKTLADGVPSRFSGSGSGTQYSLKINSLQPEDFGSYYCQHFWSTLTFGGGTKLEIK
notes: mouse hybridoma monoclonal antibody; also called anti-CAPRIN-1 monoclonal antibody #2

absorbance at 450 nm (polypeptide level) [2]: ≥ 0.3
B2: monoclonal antibody #3 (antibody, V domains shown)
VH: B1 VH
VL: SGDRVSLSCRASQSISNYLHWYQQKSHESPRLLIKYASQSISGIPSRFSGSGSGTDFTLSINSVETEDFGMYFCQQSNSWPYTFGAGTKLEIKQ
notes: mouse hybridoma monoclonal antibody; also called anti-CAPRIN-1 monoclonal antibody #3

absorbance at 450 nm (polypeptide level) [2]: ≥ 0.3
B3: monoclonal antibody #6 (antibody, V domains shown)
VH: LQESGAELARPGASVKLSCKASGYTFTSYWMQWVKQRPGQGLEWIGAIYPGDGDTRYTQKFKGKATLTADKSSSTAYMQLSSLASEDSAVYYCARGEYGNYFAYWGQGTTVTVSS
VL: TSDASLGERVTITCKASQDINSYLSWFQQKPGKSPKTLIYRANRLVDGVPSRFSGSGSGQDYSLTISSLEYEDMGIYYCLQYDEFPLTFGGGTKLEIKQ
notes: mouse hybridoma monoclonal antibody; also called anti-CAPRIN-1 monoclonal antibody #6

— US20110136121A1 (TORAY INDUSTRIES, published 2011)
